According to article doi:10.1101/2024.10.04.616518 (2024):

Experiments:
[1] = target: bovine pancreatic chymotrypsin (bovine); assay: apparent Ki, Morrison fit, 25 nM chymotrypsin
[2] = target: bovine pancreatic chymotrypsin (bovine); assay: apparent Ki, intercept of IC50 vs chymotrypsin concentration

B1: ixochymostatin (natural protein)
chain: ANTGIEWPPKPQKCAEGETWKECVGSSCAELTCEHPEPSLGCTYDCNYGCYCAPDFFRNANKECVKKDKCP
[1]
  Ki: 0.99 nM
[2]
  Ki: 16.5 nM
